In patent US20210317225A1 (Genmab, published 2021):
Each block holds one binder with its values, some of them ahead of it.

How the values were obtained:
Human CD40 = Human CD40 (human, UniProt P25942 21-277); assay: cell-based or functional assay
Human CD137 (TNR9_Human) = Human CD137 (TNR9_Human) (human, UniProt Q07011 24-255); assay: cell-based or functional assay
Sequence of Human CD137 (TNR9_Human) (Q07011 24-255): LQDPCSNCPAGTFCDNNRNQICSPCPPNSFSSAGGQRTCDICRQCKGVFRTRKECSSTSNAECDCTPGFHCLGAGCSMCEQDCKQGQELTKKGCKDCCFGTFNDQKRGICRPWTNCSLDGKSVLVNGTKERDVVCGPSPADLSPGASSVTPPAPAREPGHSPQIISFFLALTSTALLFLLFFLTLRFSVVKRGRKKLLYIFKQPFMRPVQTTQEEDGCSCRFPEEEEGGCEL

Sequence of Human CD40 (P25942 21-277): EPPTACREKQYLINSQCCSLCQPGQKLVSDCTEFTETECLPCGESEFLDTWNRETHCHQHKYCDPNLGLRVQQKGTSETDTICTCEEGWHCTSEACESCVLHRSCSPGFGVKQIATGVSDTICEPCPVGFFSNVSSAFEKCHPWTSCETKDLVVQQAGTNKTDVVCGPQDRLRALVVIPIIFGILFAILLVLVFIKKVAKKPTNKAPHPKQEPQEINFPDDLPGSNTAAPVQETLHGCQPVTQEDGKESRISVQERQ

luciferase activity (RLU) of NF-KB/293/GFP-Luc cells transduced with CD40, incubated with K562_CD137 (Human CD40): ~100 ng/mL
luciferase activity (RLU) of NF-KB/293/GFP-Luc cells transduced with CD137, incubated with K562_CD40 (Human CD137 (TNR9_Human)): ~100 ng/mL
B2: CD40-001-FEALxCD137-012-FEAR (bispecific antibody, human IgG1, kappa)
heavy 1: EVQLQQSGPDLVKPGASVKISCKTSGYTFTEYIMHWVKQSHGKSLEWIGGIIPNNGGTSYNQKFKDKATMTVDKSSSTGYMELRSLTSEDSAVYYCTRREVYGRNYYALDYWGQGTLVTVSSASTKGPSVFPLAPSSKSTSGGTAALGCLVKDYFPEPVTVSWNSGALTSGVHTFPAVLQSSGLYSLSSVVTVPSSSLGTQTYICNVNHKPSNTKVDKRVEPKSCDKTHTCPPCPAPEFEGGPSVFLFPPKPKDTLMISRTPEVTCVVVAVSHEDPEVKFNWYVDGVEVHNAKTKPREEQYNSTYRVVSVLTVLHQDWLNGKEYKCKVSNKALPAPIEKTISKAKGQPREPQVYTLPPSREEMTKNQVSLTCLVKGFYPSDIAVEWESNGQPENNYKTTPPVLDSDGSFLLYSKLTVDKSRWQQGNVFSCSVMHEALHNHYTQKSLSLSPGK
light 1: DIQMTQTTSSLSASLGDRVTITCSASQGINNYLNWYQQKPDGTVKLLIYYTSSLHSGVPSRFSGSGSGTDYSLTISNLEPEDIATYYCQQYSNLPYTFGGGTKLEIKRTVAAPSVFIFPPSDEQLKSGTASVVCLLNNFYPREAKVQWKVDNALQSGNSQESVTEQDSKDSTYSLSSTLTLSKADYEKHKVYACEVTHQGLSSPVTKSFNRGEC
heavy 2: QSVEESGGRLVTPGTPLTLTCTVSGFSLSDYYMTWVRQAPGKGLEYIGIMSGSGSTYYASWAKGRFTISKTSSTTLELKITSPTTEDTAIYFCARDGDYAGWGYATGAFDPWGPGTLVTVSSASTKGPSVFPLAPSSKSTSGGTAALGCLVKDYFPEPVTVSWNSGALTSGVHTFPAVLQSSGLYSLSSVVTVPSSSLGTQTYICNVNHKPSNTKVDKRVEPKSCDKTHTCPPCPAPEFEGGPSVFLFPPKPKDTLMISRTPEVTCVVVAVSHEDPEVKFNWYVDGVEVHNAKTKPREEQYNSTYRVVSVLTVLHQDWLNGKEYKCKVSNKALPAPIEKTISKAKGQPREPQVYTLPPSREEMTKNQVSLTCLVKGFYPSDIAVEWESNGQPENNYKTTPPVLDSDGSFFLYSRLTVDKSRWQQGNVFSCSVMHEALHNHYTQKSLSLSPGK
light 2: AAVLTQTPSPVSAAVGGTVTISCQASQSVVGNSLLSWFQKKPGQPPKLLIYSASSLASGVPSRFKGSGSGTQFTLTISDLESDDAATYYCTGRYNSDTDTFVFGGGTEVVVKRTVAAPSVFIFPPSDEQLKSGTASVVCLLNNFYPREAKVQWKVDNALQSGNSQESVTEQDSKDSTYSLSSTLTLSKADYEKHKVYACEVTHQGLSSPVTKSFNRGEC

luciferase activity (RLU) of NF-KB/293/GFP-Luc cells transduced with CD40, incubated with K562_CD137 (Human CD40): ~100 ng/mL
EC50 for induction of T-cell proliferation (antigen-specific CD8+ T-cell assay, proliferation index curves) (Human CD137 (TNR9_Human)): 0.03 µg/mL
luciferase activity (RLU) of NF-KB/293/GFP-Luc cells transduced with CD137, incubated with K562_CD40 (Human CD137 (TNR9_Human)): ~100 ng/mL
B3: CD40-001-FEALxCD137-009-FEAR (bispecific antibody, human IgG1, kappa)
heavy 1: B2 heavy 1
light 1: B2 light 1
heavy 2: QSLEESGGRLVTPGTPLTLTCTVSGFSLNDYWMSWVRQAPGKGLEWIGYIDVGGSLYYASWAKGRFTISRTSTTVDLKMTSLTTEDTATYFCARGGLTYGFDLWGPGTLVTVSSASTKGPSVFPLAPSSKSTSGGTAALGCLVKDYFPEPVTVSWNSGALTSGVHTFPAVLQSSGLYSLSSVVTVPSSSLGTQTYICNVNHKPSNTKVDKRVEPKSCDKTHTCPPCPAPEFEGGPSVFLFPPKPKDTLMISRTPEVTCVVVAVSHEDPEVKFNWYVDGVEVHNAKTKPREEQYNSTYRVVSVLTVLHQDWLNGKEYKCKVSNKALPAPIEKTISKAKGQPREPQVYTLPPSREEMTKNQVSLTCLVKGFYPSDIAVEWESNGQPENNYKTTPPVLDSDGSFFLYSRLTVDKSRWQQGNVFSCSVMHEALHNHYTQKSLSLSPGK
light 2: DIVMTQTPASVSEPVGGTVTINCQASEDISSYLAWYQQKPGQRPKRLIYGASDLASGVPSRFSASGSGTEYALTISDLESADAATYYCHYYATISGLGVAFGGGTEVVVKRTVAAPSVFIFPPSDEQLKSGTASVVCLLNNFYPREAKVQWKVDNALQSGNSQESVTEQDSKDSTYSLSSTLTLSKADYEKHKVYACEVTHQGLSSPVTKSFNRGEC

luciferase activity (RLU) of NF-KB/293/GFP-Luc cells transduced with CD40, incubated with K562_CD137 (Human CD40): ~100 ng/mL
luciferase activity (RLU) of NF-KB/293/GFP-Luc cells transduced with CD137, incubated with K562_CD40 (Human CD137 (TNR9_Human)): ~100 ng/mL
B5: CD40-001-FEALxCD137-010-FEAR (bispecific antibody, human IgG1, kappa)
heavy 1: B2 heavy 1
light 1: B2 light 1
heavy 2: QSVEESGGRLVTPGTPLTLTCTVSGFSLSTYAMIWVRQAPGKGLEWIGVVYDNGYISHATWVKGRFTISKTSTTVGLEITSPTTEDTATYFCARSADGSWSTYFNLWGQGTLVTVSSASTKGPSVFPLAPSSKSTSGGTAALGCLVKDYFPEPVTVSWNSGALTSGVHTFPAVLQSSGLYSLSSVVTVPSSSLGTQTYICNVNHKPSNTKVDKRVEPKSCDKTHTCPPCPAPEFEGGPSVFLFPPKPKDTLMISRTPEVTCVVVAVSHEDPEVKFNWYVDGVEVHNAKTKPREEQYNSTYRVVSVLTVLHQDWLNGKEYKCKVSNKALPAPIEKTISKAKGQPREPQVYTLPPSREEMTKNQVSLTCLVKGFYPSDIAVEWESNGQPENNYKTTPPVLDSDGSFFLYSRLTVDKSRWQQGNVFSCSVMHEALHNHYTQKSLSLSPGK
light 2: DIVMTQTPASVEAAVGGTVTIKCQASESISNYLAWYQQKPGQPPKLLIYKASTLASGVSSRFKGSGSGTEFTLTISDLESADAATYYCQTNYCCSSSDNGFAFGGGTEVVVKRTVAAPSVFIFPPSDEQLKSGTASVVCLLNNFYPREAKVQWKVDNALQSGNSQESVTEQDSKDSTYSLSSTLTLSKADYEKHKVYACEVTHQGLSSPVTKSFNRGEC

luciferase activity (RLU) of NF-KB/293/GFP-Luc cells transduced with CD40, incubated with K562_CD137 (Human CD40): ~100 ng/mL
luciferase activity (RLU) of NF-KB/293/GFP-Luc cells transduced with CD137, incubated with K562_CD40 (Human CD137 (TNR9_Human)): ~100 ng/mL
B6: CD40-001-FEALxCD137-011-FEAR (bispecific antibody, human IgG1, kappa)
heavy 1: B2 heavy 1
light 1: B2 light 1
heavy 2: QSLEESGGRLVTPGTPLTLTCTVSGIDLSSYHMCWVRQAPGKGLEYIGYIAYGGNTYYANWAKGRFTISKTSTTVDLRITSPTTEDTATYFCARGYSEDSYWGLWGPGTLVTVSSASTKGPSVFPLAPSSKSTSGGTAALGCLVKDYFPEPVTVSWNSGALTSGVHTFPAVLQSSGLYSLSSVVTVPSSSLGTQTYICNVNHKPSNTKVDKRVEPKSCDKTHTCPPCPAPEFEGGPSVFLFPPKPKDTLMISRTPEVTCVVVAVSHEDPEVKFNWYVDGVEVHNAKTKPREEQYNSTYRVVSVLTVLHQDWLNGKEYKCKVSNKALPAPIEKTISKAKGQPREPQVYTLPPSREEMTKNQVSLTCLVKGFYPSDIAVEWESNGQPENNYKTTPPVLDSDGSFFLYSRLTVDKSRWQQGNVFSCSVMHEALHNHYTQKSLSLSPGK
light 2: AYDMTQTPASVEAAVGGTVTIKCQASQNIENYLAWYQQKPGQPPKLLIYDTSKLTSGVPSRFSGSGSGTDFTLTISGVQSDDAATYYCQQDYGIIFVDNIFGGGTEVVVKRTVAAPSVFIFPPSDEQLKSGTASVVCLLNNFYPREAKVQWKVDNALQSGNSQESVTEQDSKDSTYSLSSTLTLSKADYEKHKVYACEVTHQGLSSPVTKSFNRGEC

The remaining lines, values behind:

B1: CD40-001-FEALxCD137-008-FEAR (bispecific antibody, human IgG1, kappa)
heavy 1: B2 heavy 1
light 1: B2 light 1
heavy 2: QSLEESGGRLVTPGTPLTLTCTASGFSLSSYDMSWVRQAPGKGLEYIGYISSSGNTYYASWAKSRFTISKTSTTVDLKITSPTTEDTATYFCAREGDYWDFNLWGPGTLVTVSSASTKGPSVFPLAPSSKSTSGGTAALGCLVKDYFPEPVTVSWNSGALTSGVHTFPAVLQSSGLYSLSSVVTVPSSSLGTQTYICNVNHKPSNTKVDKRVEPKSCDKTHTCPPCPAPEFEGGPSVFLFPPKPKDTLMISRTPEVTCVVVAVSHEDPEVKFNWYVDGVEVHNAKTKPREEQYNSTYRVVSVLTVLHQDWLNGKEYKCKVSNKALPAPIEKTISKAKGQPREPQVYTLPPSREEMTKNQVSLTCLVKGFYPSDIAVEWESNGQPENNYKTTPPVLDSDGSFFLYSRLTVDKSRWQQGNVFSCSVMHEALHNHYTQKSLSLSPGK
light 2: AQVLTQTPSSVSAAVGGTVTINCQASQSISNLLAWYQQKPGQRPRLLIYRASTLASGVPSRFKGSGSGTEFTLTISDLESEDAATYYCAGGFPGLDTGATFGGGTEAVVTRTVAAPSVFIFPPSDEQLKSGTASVVCLLNNFYPREAKVQWKVDNALQSGNSQESVTEQDSKDSTYSLSSTLTLSKADYEKHKVYACEVTHQGLSSPVTKSFNRGEC
luciferase activity (RLU) of NF-KB/293/GFP-Luc cells transduced with CD40, incubated with K562_CD137 (Human CD40): ~100 ng/mL
luciferase activity (RLU) of NF-KB/293/GFP-Luc cells transduced with CD137, incubated with K562_CD40 (Human CD137 (TNR9_Human)): ~100 ng/mL

B4: CD40-001-FEALxCD137-002-FEAR (bispecific antibody, human IgG1, kappa)
heavy 1: B2 heavy 1
light 1: B2 light 1
heavy 2: QSVEESGGRLVTPGTPLTLTCTVSGFSLTYYAVTWVRQPPGKGLEWIGVIYDNGATAFATWAKGRFTMSKNSTTVALKVTSPTTEDTATYFCARSANNAWSTYSNLWGQGTLVTVSSASTKGPSVFPLAPSSKSTSGGTAALGCLVKDYFPEPVTVSWNSGALTSGVHTFPAVLQSSGLYSLSSVVTVPSSSLGTQTYICNVNHKPSNTKVDKRVEPKSCDKTHTCPPCPAPEFEGGPSVFLFPPKPKDTLMISRTPEVTCVVVAVSHEDPEVKFNWYVDGVEVHNAKTKPREEQYNSTYRVVSVLTVLHQDWLNGKEYKCKVSNKALPAPIEKTISKAKGQPREPQVYTLPPSREEMTKNQVSLTCLVKGFYPSDIAVEWESNGQPENNYKTTPPVLDSDGSFFLYSRLTVDKSRWQQGNVFSCSVMHEALHNHYTQKSLSLSPGK
light 2: DIVMTQTPSSVSAAVGGTVTINCQASEDISSYLSWYQQKLGQPPKLLIYKASTLESGVPSRFKGSGSGTEYTLTISDLESDDAATYYCQSYYSGSISGYGFVFGGGTGVVVKRTVAAPSVFIFPPSDEQLKSGTASVVCLLNNFYPREAKVQWKVDNALQSGNSQESVTEQDSKDSTYSLSSTLTLSKADYEKHKVYACEVTHQGLSSPVTKSFNRGEC
luciferase activity (RLU) of NF-KB/293/GFP-Luc cells transduced with CD40, incubated with K562_CD137 (Human CD40): ~100 ng/mL
luciferase activity (RLU) of NF-KB/293/GFP-Luc cells transduced with CD137, incubated with K562_CD40 (Human CD137 (TNR9_Human)): ~100 ng/mL

B7: CD40-001-FEALxCD137-003-FEAR (bispecific antibody, human IgG1, kappa)
heavy 1: B2 heavy 1
light 1: B2 light 1
heavy 2: QSVEESGGRLVTPGTPLTLTCTASGFTISSYHMIWVRQAPGEGLEWIGDIYGGTATTDYASWAKGRFTISKTSTTVDLKMTSLTTEDTATYFCARARYSGGSYANYVFNLWGQGTLVTVSSASTKGPSVFPLAPSSKSTSGGTAALGCLVKDYFPEPVTVSWNSGALTSGVHTFPAVLQSSGLYSLSSVVTVPSSSLGTQTYICNVNHKPSNTKVDKRVEPKSCDKTHTCPPCPAPEFEGGPSVFLFPPKPKDTLMISRTPEVTCVVVAVSHEDPEVKFNWYVDGVEVHNAKTKPREEQYNSTYRVVSVLTVLHQDWLNGKEYKCKVSNKALPAPIEKTISKAKGQPREPQVYTLPPSREEMTKNQVSLTCLVKGFYPSDIAVEWESNGQPENNYKTTPPVLDSDGSFFLYSRLTVDKSRWQQGNVFSCSVMHEALHNHYTQKSLSLSPGK
light 2: DIVMTQTPASVEAAVGGTVTIKCQASQSISSYLAWYQQKPGQPPKLLIYRTSTLESGVPSRFKGSGSGTEFTLTISDLESADAATYYCQGYDWSSSNRYDNTFGGGTEVVVKRTVAAPSVFIFPPSDEQLKSGTASVVCLLNNFYPREAKVQWKVDNALQSGNSQESVTEQDSKDSTYSLSSTLTLSKADYEKHKVYACEVTHQGLSSPVTKSFNRGEC
luciferase activity (RLU) of NF-KB/293/GFP-Luc cells transduced with CD40, incubated with K562_CD137 (Human CD40): ~100 ng/mL
luciferase activity (RLU) of NF-KB/293/GFP-Luc cells transduced with CD137, incubated with K562_CD40 (Human CD137 (TNR9_Human)): ~100 ng/mL
